{"source": "patent US20160311912A1", "about": "(RINAT NEUROSCIENCE, published 2016)", "binders": {"B1": {"name": "mAb4 (antibody, V domains shown)", "VH": "QVQLVQSGAEVKKPGASVKVSCKASGYTFTSSLIHWVRQAPGQGLEWMGYINPYNDGTKYNEKFKGRVTMTRDTSTSTVYMELSSLRSEDTAVYYCARMDYGNLWYFDVWGQGTLVTVSS", "VL": "EIVLTQSPATLSLSPGERATLSCRASENIYYSLAWYQQKPGQAPRLLIYNANSLEDGIPARFSGSGSGTDFTLTISSLEPEDFAVYYCKQAYDVPFTFGGGTKVEIK"}, "B2": {"name": "anti-glucagon receptor antagonist antibody mAb5 (antibody, V domains shown)", "VH": "QVQLVQSGAEVKKPGASVKVSCKASGYTFTDFSVHWVRQAPGQGLEWMGWINTETDETSYADDFKGRVTMTRDTSTSTVYMELSSLRSEDTAVYYCVKSRYWSYGPPDYWGQGTTVTVSS", "VL": "DIQMTQSPSSLSASVGDRVTITCQASQNIRTAVVWYQQKPGKAPKLLIYLASNRHSGVPSRFSGSGSGTDFTFTISSLQPEDIATYYCLQHWTYPFTFGGGTKVEIKR", "notes": "Fluorescence-labeled in the yeast display experiment"}, "B3": {"name": "mAb5 Fab (Fab, V domains shown)", "VH": "B2 VH", "VL": "DIQMTQSPSSLSASVGDRVTITCQASQNIRTAVVWYQQKPGKAPKLLIYLASNRHSGVPSRFSGSGSGTDFTFTISSLQPEDIATYYCLQHWTYPFTFGGGTKVEIK", "notes": "also called Fab of anti-glucagon receptor antagonist antibody mAb5"}, "B4": {"name": "H2-C8-H3-3 (antibody, V domains shown)", "VH": "B2 VH with D56R, E57G, R100L", "VL": "B3 VL with Q24R, S52T, T97S, V104L"}, "B5": {"name": "H2-C8-H3-2 (antibody, V domains shown)", "VH": "B2 VH with D56R, E57G, R100L, Y101F", "VL": "B3 VL with Q24R, S52T, T97S, V104L"}, "B6": {"name": "mAb2 (antibody, V domains shown)", "VH": "B2 VH with Y101G", "VL": "B3 VL with Q24R, S52T, T97S, V104L"}, "B7": {"name": "H2-A11-H3-4 (antibody, V domains shown)", "VH": "B2 VH with T55Y, E57F, Y101W", "VL": "B3 VL with Q24R, S52T, T97S, V104L"}, "B8": {"name": "mAb1 (antibody, V domains shown)", "VH": "QIQLVQSGPELKKPGETVKISCKASGYTFTDFSIHWVKQAPGKGLKWMGWINTETDESTYADDFKGRFAFSLETSASTAYLQINNLKNEDTATYFCVKSRGWTYGPPDYWGQGTTLTVSS", "VL": "DIVMTQSQKFMSASVGDRVSITCKASQNVRTAVVWFQQKPGQSPNTLIYLASNRHSEVPDRFTGSGSGTDFTLTISNVQSEDLADYFCLQHWTYPFTFASGTKLEIK"}}, "key": {"[1]": {"molecular_target": "T1, glucagon receptor (target of the KD / T½ of Tables 1A, 1B and 2B) (Homo sapiens (Human), UniProt P47871 26-136)", "T1 construct": "not shown: Human Fc carrier (and any linker) of the ECD-Fc fusion", "T1 sequence (P47871 26-136 limits assumed)": "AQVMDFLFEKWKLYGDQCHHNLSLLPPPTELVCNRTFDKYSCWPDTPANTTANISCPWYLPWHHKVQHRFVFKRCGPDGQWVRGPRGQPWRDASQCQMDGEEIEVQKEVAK", "assay": "not stated (column of Table 1A)"}, "[2]": {"molecular_target": "human glucagon receptor on stably transfected CHO cells (human, UniProt P47871 26-477)", "sequence (P47871 26-477 limits assumed)": "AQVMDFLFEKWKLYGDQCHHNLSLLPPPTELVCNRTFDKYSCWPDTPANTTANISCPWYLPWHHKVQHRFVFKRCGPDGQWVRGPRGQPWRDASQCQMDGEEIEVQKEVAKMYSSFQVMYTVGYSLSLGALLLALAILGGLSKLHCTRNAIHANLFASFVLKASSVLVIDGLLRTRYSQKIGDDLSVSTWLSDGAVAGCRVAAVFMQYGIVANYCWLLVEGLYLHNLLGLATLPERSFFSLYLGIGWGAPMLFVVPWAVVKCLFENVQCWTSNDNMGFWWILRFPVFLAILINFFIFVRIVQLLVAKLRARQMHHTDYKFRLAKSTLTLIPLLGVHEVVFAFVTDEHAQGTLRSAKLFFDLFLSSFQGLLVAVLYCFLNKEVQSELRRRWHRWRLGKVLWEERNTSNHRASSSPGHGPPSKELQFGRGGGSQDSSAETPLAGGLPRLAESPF", "assay": "cell-based or functional assay"}, "[3]": {"molecular_target": "T2, Human glucagon receptor extracellular domain human Fc fusion protein (human, UniProt P47871 26-136, limits assumed)", "T2 construct": "also called glucagon receptor Fc fusion protein; not shown: human Fc", "T2 sequence (P47871 26-136 limits assumed)": "as the sequence (P47871 26-136 limits assumed) above", "assay": "SPR (Biacore T200), receptor-Fc captured on anti-human Fc chip, mAb5 Fab as analyte, 25° C.", "description": "(§1) An anti-human Fc sensor chip was prepared by activating all flow cells of a Biacore CM4 sensor chip with a 1:1 (v/v) mixture of 400 mM EDC and 100 mM NHS for 7 minutes, at a flow rate of 10 μL/min. Goat anti-human Fc antibody (Southern Biotech) was diluted to 50 μg/mL in 10 mM sodium acetate pH 5.0 and injected on all flow cells for 7 minutes at 20 μL/min. All flow cells were blocked with 100 mM ethylenediamine in 150 mM borate buffer pH 8.5 for 7 minutes at 10 μL/min. The running buffer for this immobilization procedure was 10 mM HEPES, 150 mM NaCl, 0.05% (v/v) TWEEN® 20, pH 7.4.\n(§2) The following kinetics experiments were performed at 25° C. and 37° C. using a running buffer of 10 mM HEPES, 150 mM NaCl, 0.05% (v/v) TWEEN® 20, pH 7.4, 1 mg/mL BSA.\n(§3) All experiments were performed on a Biacore™ T200 surface Plasmon resonance biosensor (GE Lifesciences, Piscataway N.J.). Human and cynomolgus monkey (cyno) glucagon receptor extracellular domain human Fc fusion proteins were captured onto downstream flow cells (flow cells 2, 3, respectively) at 2 μg/mL at a flow rate of 10 μL/min for 3 minutes. Flow cell 1 was used as a blank reference surface. Following capture of glucagon receptor Fc fusion proteins, analyte (buffer, or mAb5 Fab) was injected at 30 μL/min on all flow cells for two minutes. Multiple mAb5 Fab analyte concentrations were tested. The mAb5 Fab analyte concentrations were 0.16, 0.8, 4, 20 and 100 nM. After the analyte injection, dissociation was monitored for 10 minutes (for the 20 nM and 100 nM mAb5 Fab analyte samples) or 30 seconds (for the 0.16, 0.8, and 4 nM mAb5 Fab analyte samples). Dissociation was monitored for 30 seconds and 10 minutes for buffer analyte cycles. Following analyte binding and dissociation all flow cells were regenerated with four 1-minute injections of 75 mM phosphoric acid. The sensorgram data were double referenced prior to curve fitting (double referencing as described in Myszka, D. G., 1999, J. Mol. Recognit., 12:279-284. The double referenced sensorgrams were fit globally to a simple 1:1 Langmuir with mass transport binding model using the Biacore™ T200 evaluation software. The binding affinity data for anti-glucagon receptor antagonist antibody mAb5 binding to human and cyno glucagon receptor are shown below in Table 4."}, "[4]": {"molecular_target": "T3, Cynomolgus monkey (cyno) glucagon receptor extracellular domain human Fc fusion protein (cynomolgus monkey)", "T3 construct": "extracellular domain", "assay": "SPR (Biacore T200), receptor-Fc captured on anti-human Fc chip, mAb5 Fab as analyte, 25° C.", "description": "as §1, §2, §3"}, "[5]": {"molecular_target": "T2, Human glucagon receptor extracellular …", "assay": "SPR (Biacore T200), receptor-Fc captured on anti-human Fc chip, mAb5 Fab as analyte, 37° C.", "description": "as §1, §2, §3"}, "[6]": {"molecular_target": "T3, Cynomolgus monkey (cyno) glucagon …", "assay": "SPR (Biacore T200), receptor-Fc captured on anti-human Fc chip, mAb5 Fab as analyte, 37° C.", "description": "as §1, §2, §3"}, "[7]": {"molecular_target": "T3, Cynomolgus monkey (cyno) glucagon …", "assay": "SPR (Biacore T200), receptor-Fc captured on anti-human Fc chip, mAb5 Fab as analyte, 25° C.; limit reported", "description": "as §1, §2\n(§4) All experiments were performed on a Biacore™ T200 surface Plasmon resonance biosensor (GE Lifesciences, Piscataway N.J.). Human and cynomolgus monkey (cyno) glucagon receptor extracellular domain human Fc fusion proteins were captured onto downstream flow cells (flow cells 2, 3, respectively) at 2 μg/mL at a flow rate of 10 μL/min for 3 minutes. […] After the analyte injection, dissociation was monitored for 10 minutes (for the 20 nM and 100 nM mAb5 Fab analyte samples) or 30 seconds (for the 0.16, 0.8, and 4 nM mAb5 Fab analyte samples). Dissociation was monitored for 30 seconds and 10 minutes for buffer analyte cycles. […]"}, "[8]": {"molecular_target": "T3, Cynomolgus monkey (cyno) glucagon …", "assay": "SPR (Biacore T200), receptor-Fc captured on anti-human Fc chip, mAb5 Fab as analyte, 25° C.; dissociation too slow, limit reported", "description": "as §1, §2, §4"}, "[9]": {"molecular_target": "T1, glucagon receptor (target of the KD / …)", "assay": "not stated; 37° C."}, "[10]": {"molecular_target": "T1, glucagon receptor (target of the KD / …)", "assay": "not stated; 37° C. (entry printed a second time)"}}, "note": "Where a chain is given by its changes, count along the chain named.", "data": [{"binder": "B1", "values": [{"measurement": "Kd", "setting": "[1]", "result": 10.2, "unit": "nM"}]}, {"binder": "B2", "values": [{"measurement": "IC50 (read off the curve)", "setting": "[2]", "result": "~1", "unit": "µg/mL"}, {"measurement": "Kd", "setting": "[1]", "result": 0.224, "unit": "nM"}]}, {"binder": "B3", "values": [{"measurement": "Kd", "setting": "[3]", "result": 0.22, "unit": "nM"}, {"measurement": "koff", "setting": "[3]", "result": 0.0001, "unit": "s⁻¹"}, {"measurement": "kon", "setting": "[3]", "result": 460000, "unit": "M⁻¹ s⁻¹"}, {"measurement": "t1/2", "setting": "[3]", "result": 1.93, "unit": "h"}, {"measurement": "kon", "setting": "[4]", "result": 500000, "unit": "M⁻¹ s⁻¹"}, {"measurement": "Kd", "setting": "[5]", "result": 0.75, "unit": "nM"}, {"measurement": "koff", "setting": "[5]", "result": 0.00049, "unit": "s⁻¹"}, {"measurement": "kon", "setting": "[5]", "result": 650000, "unit": "M⁻¹ s⁻¹"}, {"measurement": "t1/2", "setting": "[5]", "result": 0.4, "unit": "h"}, {"measurement": "Kd", "setting": "[6]", "result": 0.72, "unit": "nM"}, {"measurement": "koff", "setting": "[6]", "result": 0.00054, "unit": "s⁻¹"}, {"measurement": "kon", "setting": "[6]", "result": 750000, "unit": "M⁻¹ s⁻¹"}, {"measurement": "t1/2", "setting": "[6]", "result": 0.35, "unit": "h"}, {"measurement": "Kd", "setting": "[7]", "result": "< 0.17", "unit": "nM"}, {"measurement": "t1/2", "setting": "[7]", "result": "> 2.27", "unit": "h"}, {"measurement": "koff", "setting": "[8]", "result": "< 8.5e-05", "unit": "s⁻¹"}]}, {"binder": "B4", "values": [{"measurement": "T½", "setting": "[9]", "result": 12.4, "unit": "h"}, {"measurement": "T½", "setting": "[10]", "result": 12.4, "unit": "h"}]}, {"binder": "B5", "values": [{"measurement": "T½", "setting": "[9]", "result": 6.89, "unit": "h"}, {"measurement": "T½", "setting": "[10]", "result": 6.89, "unit": "h"}]}, {"binder": "B6", "values": [{"measurement": "T½", "setting": "[1]", "result": 5.75, "unit": "min"}]}, {"binder": "B7", "values": [{"measurement": "T½", "setting": "[9]", "result": 6.36, "unit": "h"}, {"measurement": "T½", "setting": "[10]", "result": 6.36, "unit": "h"}]}, {"binder": "B8", "values": [{"measurement": "Kd", "setting": "[1]", "result": 0.64, "unit": "nM"}]}]}
